The text below walks through data of patent US20220267421A1 (INVOX PHARMA, published 2022).

Numbering of substitutions follows the chain as printed. Where only a bound is given, the exact number is not on record here.

T1: cynomolgus MSLN-His-Avi (cynomolgus, single biotin (BirA) in the biotinylated form)
T1 construct: Monomeric, made in HEK293-6E; also called cMSLN-His-Avi; cyno MSLN-His-Avi
T1 chain: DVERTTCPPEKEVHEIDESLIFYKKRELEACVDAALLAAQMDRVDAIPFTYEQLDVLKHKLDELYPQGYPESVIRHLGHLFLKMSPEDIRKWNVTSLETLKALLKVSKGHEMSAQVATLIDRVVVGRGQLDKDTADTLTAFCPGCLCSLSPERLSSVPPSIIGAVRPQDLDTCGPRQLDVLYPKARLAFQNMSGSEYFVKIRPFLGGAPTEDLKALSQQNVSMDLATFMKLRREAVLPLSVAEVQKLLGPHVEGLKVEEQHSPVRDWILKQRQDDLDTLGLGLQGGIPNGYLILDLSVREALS

B1: FS22-053-008-AA/FS28-024-051 mAb^2 (bispecific antibody, human IgG1, kappa, L234A L235A, V domains shown)
VH: EVQLLESGGGLVQPGGSLRLSCAASGFTLSYSSMSWVRQAPGKGLEWVSFITPSTGYTHYADSVKGRFTISRDNSKNTLYLQMNSLRAEDTAVYYCARRALIFDYWGQGTLVTVSS
VL: EIVLTQSPGTLSLSPGERATLSCRASQSVSSSYLAWYQQKPGQAPRLLIYGASSRATGIPDRFSGSGSGTDFTLTISRLEPEDFAVYYCQQASSYPLTFGQGTKVEIKR
notes: also called FS28-024-51
B2: FS22-053-008-AA/FS28-024-052 mAb^2 (bispecific antibody, human IgG1, kappa, L234A L235A, V domains shown)
VH: B1 VH with I102L
VL: B1 VL
notes: also called FS28-024-52
B3: FS22-053-008-AA/FS28-256-005 mAb^2 (bispecific antibody, human IgG1, kappa, L234A L235A, V domains shown)
VH: EVQLLESGGGLVQPGGSLRLSCAASGFTFTETYMSWVRQAPGKGLEWVSNISPTYSTTNYADSVKGRFTISRDNSKNTLYLQMNSLRAEDTAVYYCARYNSYQGGLDYWGQGTLVTVSS
VL: B1 VL with S93L, S94G, L97H
B4: FS22-053-008-AA/FS28-024-060 mAb^2 (bispecific antibody, human IgG1, kappa, L234A L235A, V domains shown)
VH: B1 VH with I102W
VL: B1 VL
B5: FS22-053-008-AA/FS28-256-001 mAb^2 (bispecific antibody, human IgG1, kappa, L234A L235A, V domains shown)
VH: B3 VH
VL: B1 VL with A92H, S93N, S94Q, L97N
B6: FS22-053-008-AA/FS28-256-018 mAb^2 (bispecific antibody, human IgG1, kappa, L234A L235A, V domains shown)
VH: B3 VH with E31Q, S101A, G104I
VL: B1 VL with A92S, S93Y, S94Y, L97I
B7: FS22-053-008-AA/FS28-256-014 mAb^2 (bispecific antibody, human IgG1, kappa, L234A L235A, V domains shown)
VH: B3 VH with E31D, S101A, Q103A, G104A
VL: B1 VL with A92S, S93Y, S94Y, L97I
B8: FS22-053-008-AA/FS28-024-053 mAb^2 (bispecific antibody, human IgG1, kappa, L234A L235A, V domains shown)
VH: B1 VH with I102V
VL: B1 VL
notes: also called FS28-024-53
B9: FS22-053-008-AA/FS28-026 mAb^2 (bispecific antibody, human IgG1, kappa, L234A L235A, V domains shown)
VH: EVQLLESGGGLVQPGGSLRLSCAASGFTFSNYAMTWVRQAPGKGLEWVSSITPYYSKTDYADSVKGRFTISRDNSKNTLYLQMNSLRAEDTAVYYCARNWYRFDYWGQGTLVTVSS
VL: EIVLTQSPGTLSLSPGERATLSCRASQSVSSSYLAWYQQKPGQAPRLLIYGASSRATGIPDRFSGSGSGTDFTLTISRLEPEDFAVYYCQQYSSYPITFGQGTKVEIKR
notes: also called FS28-026 (in mAb^2 format)
B10: FS22-053-008-AA/FS28-091 mAb^2 (bispecific antibody, human IgG1, kappa, L234A L235A, V domains shown)
VH: B9 VH with S30T, T35S, T52K, Y55D, S56G, K57N, D59Y, W100R, Y101W, R102V
VL: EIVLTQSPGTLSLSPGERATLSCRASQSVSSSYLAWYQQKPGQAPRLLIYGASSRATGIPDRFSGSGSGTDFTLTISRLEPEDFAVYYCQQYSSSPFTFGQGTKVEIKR
notes: also called FS28-091 (in mAb^2 format)

The target in the first test is T2, cell surface human mesothelin (MSLN) (human, UniProt Q13421 296-598).
T2 construct: whole, on cells; also called cell surface MSLN
T2 sequence (Q13421 other isoform, or with tags, fused parts or gaps limits assumed): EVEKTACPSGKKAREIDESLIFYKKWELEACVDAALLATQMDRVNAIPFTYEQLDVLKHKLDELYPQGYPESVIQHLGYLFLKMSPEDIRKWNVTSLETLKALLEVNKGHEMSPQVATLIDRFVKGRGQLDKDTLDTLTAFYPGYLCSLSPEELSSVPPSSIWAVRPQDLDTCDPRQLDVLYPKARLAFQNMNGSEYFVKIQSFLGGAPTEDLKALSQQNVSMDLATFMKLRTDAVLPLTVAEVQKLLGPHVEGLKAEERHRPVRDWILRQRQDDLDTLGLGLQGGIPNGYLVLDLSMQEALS
The test is described as follows: flow cytometry, NCI-H226 cells. On the procedure: (§1) Cells were centrifuged at 1200 rpm for 3 min and resuspended in ice cold FACS buffer made up of DPBS (Life Technologies, 14190169) and 1% BSA (Sigma-Aldrich, A7906) at 2×10⁶ cells/ml and 50 μl per well was seeded in a 96-well V-bottom plate (Costar, 3894). All mAbs tested were diluted in FACS buffer in 120 μl at a concentration range of 0.01-200 nM (4-fold dilutions). The NCI-H226 cells were then centrifuged, supernatant removed and cells resuspended in 100 μl of each mAb dilution and incubated at 4° C. for 45 min. Cells were washed twice by centrifugation with 150 μl FACS buffer, resuspended in 100 μl containing goat anti-human IgG (γ-chain specific) F(ab′)2 fragment-R-Phycoerythrin antibody (Sigma, P8047) diluted 1:1000 in FACS buffer and incubated at 4° C. for 45 min. The cells were washed once with 150 μl FACS buffer and then with 150 μl DPBS, resuspended in 150 μl DPBS containing DAPI (Biotium, 40043) at 1:10.000 and read on the BDCantoll or iQue (Intellicyt). Data was analysed using FlowJo v10 to determine the signal geometric mean for PE for live cells in each well.
(§2) Cell binding assays using OVCAR-3 cells were performed similarly to the assays described in section 2.4. The effect of the presence of soluble MSLN was tested by pre-incubating the antibodies in the presence or absence of soluble MSLN before mixing with cells and determining if the pre-incubation affected binding to MSLN on the cell surface. […] 60 μl from each well was then added to either FACS buffer alone or to FACS buffer containing 60 μl of 40 nM recombinant hMSLN (R&D systems, 3265-MS-050) (to give a final concentration of 20 nM hMSLN) and pre-incubated at room temperature for 1 hour before 100 μl was added to the cells. Bound antibody was detected using goat anti-human anti-Fcγ Alexa-Fluor 488 (Jackson Immunoresearch, 109-546-098).
(§3) The method used was exactly as described in section 3.1.4.
A general note: A flow cytometer gives signals particle by particle.
As a reminder, the EC50 is the concentration at which the effect is half-maximal. With B1, the EC50 was 0.78 nM and the “Emax (MFI)” value came out at 801000 MFI.
Turning to B2, the 50% effective concentration (EC50) stood at 1.32 nM and the “Emax (MFI)” value came to 958000 MFI.
The like results for B3 were, in that order, 5.3 nM and 760000 MFI.
The like results for B4 were, in that order, 1.46 nM and 1.01e+06 MFI.
In the case of B5, the midpoint of the response, the EC50, lay at 4.98 nM and the “Emax (MFI)” value was 703000 MFI.
As for B6, the midpoint of the response, the EC50, lay at 6.98 nM and the “Emax (MFI)” value was 637000 MFI.
As to B7, a half-maximal response (EC50) required 3.11 nM and the “Emax (MFI)” value amounted to 771000 MFI.
For the molecule B8, the response was half-maximal at 1.19 nM (EC50) and the “Emax (MFI)” value is 914000 MFI.
On the same counts, the results for B9 are 1.91 nM and 730000 MFI.
The like results for B10 were, in that order, 2.72 nM and 740000 MFI.

In another test the target is T2, cell surface human mesothelin (MSLN). The test can be described thus: flow cytometry, NCI-H226 cells + 20 nM soluble MSLN. The procedure: as §1, §2, §3
Consider B1, for which the EC50 came out at 7.47 nM and the “Emax (MFI)” value amounted to 1.1e+06 MFI.
On the same counts, the results for B2 are 4.28 nM and 986000 MFI.
In the case of B3, the EC50 is 3.91 nM and the “Emax (MFI)” value was found to be 654000 MFI.
The like results for B4 were, in that order, 25.7 nM and 1.23e+06 MFI.
With B5, the concentration giving a half-maximal response (EC50) was 5.36 nM and the “Emax (MFI)” value was 608000 MFI.
With B6, the EC50 turned out to be 4.6 nM and the “Emax (MFI)” value worked out at 494000 MFI.
The like results for B7 were, in that order, 2.72 nM and 616000 MFI.
The like results for B8 were, in that order, 7.52 nM and 965000 MFI.
On the same counts, the results for B9 are 2.65 nM and 702000 MFI.
B10: the EC50 is 3.97 nM and the “Emax (MFI)” value turned out to be 745000 MFI.

For the next test, the target named is T3, human MSLN-His-Avi (human, UniProt Q13421 296-598, single biotin (BirA) in the biotinylated form).
T3 construct: Monomeric, made in HEK293-6E; Used both immobilised and in solution; also called hMSLN-His-Avi; biotinylated hMSLN-His-Avi
T3 sequence (Q13421 other isoform, or with tags, fused parts or gaps): as the sequence (Q13421 other isoform, or with tags, fused parts or gaps limits assumed) above
The test is described as follows: ratio of the two SPR KD. The procedure: (§4) Human MSLN-His-Avi was immobilised on flow cell 2 on a CM5 Series S BIAcore sensor chip (GE Healthcare, BR100530) using an amine coupling kit (GE Healthcare, BR10050) to approximately 200 response units (RU). Flow cell 1 was left blank for subtraction. HEK293-6E supernatants or purified proteins were adjusted with HBS-EP+(GE Healthcare) to approximately 50 nM anti-MSLN mAb per sample. Samples were injected over flow cell 1 and 2 for 2.5 min at 30 μl/min and then allowed to dissociate in HBS-EP buffer for 2.5 min. Regeneration was achieved by injecting 10 mM glycine pH 1.5 (GE Healthcare, BR100354) for 30 seconds at a rate of 30 μl/min. Subtracted data (flow cell 2−flow cell 1) were analysed using BIAevaluation 3.2 Software (GE Healthcare).
(§5) Binding of the selected anti-MSLN clones in mAb² format, to recombinant human and cyno MSLN-His-Avi antigen was measured by SPR using a Biacore T200 processing unit (GE Healthcare). As previously described, it was desirable to bind more strongly to immobilised antigen than to soluble antigen. To assess the binding properties of the clones, binding kinetics to immobilised MSLN antigen were determined as described in section 2.1.2 and compared to the kinetics obtained when MSLN antigens in solution bound to captured clones.
(§6) For the capture experiments, clones in mAb² format were captured using a BIAcore sensor series S chip Protein G (GE Healthcare, 29179315). mAb² diluted in HBS-EP buffer (GE Healthcare, BR100188) containing 900 mM […] at 1 μg/ml, were injected individually on flow cell 2, 3 and 4 at 30 μl/min to achieve a response of approximately 100 RU. G1-AA/HeID1.3 was captured on flow cell 1. The recombinant human and cyno MSLN-His-Avi (section 1.1), diluted in HBS-EP buffer containing 900 mM […], were injected on flow cell 1, 2, 3 or 4 as appropriate at a concentration range of 1000 nM to 0.051 nM with 3-fold dilutions for 5 minutes at 70 μl/min and then allowed to dissociate in buffer for 5 minutes. Regeneration was achieved by injecting 10 mM glycine pH1.5 (GE Healthcare, BR100354) and surfactant P20 (GE Healthcare, BR-1000-54) for 20 seconds at a rate of 30 μl/min.
For B1, the “Ratio of KD in solution/immobilised for human MSLN-His-Avi” value (“Ratio of KD in solution/immobilised” for short) amounted to 154.
In the case of B2, the “Ratio of KD in solution/immobilised” value worked out at 92.3.
On to B4, for which the “Ratio of KD in solution/immobilised” value was 78.6.
Still for that read-out and setting: the value for B8 was 55.3; that for B9 was 5000; that for B10 was 580.

For another test, the target named is T1, cynomolgus MSLN-His-Avi. The test can be described thus: SPR (Biacore), mAb^2 captured on Protein G, MSLN in solution injected. The procedure:
as §5
as §6, with “μl/min. Subtracted data (flow cell 2−flow cell 1, flow cell 3−flow cell 1, or flow cell 4−flow cell 1) were analysed using BIAevaluation 3.2 Software (GE Healthcare) to identify binding using the model 1:1 binding, local Rmax and with refractive index (RI) constant 0.” for “μl/min.”
Background: SPR reads the build-up and loss of mass on a sensor chip optically.
The Kd is the concentration at which binding is half-saturated. Low values mean higher affinity, high ones lower affinity. B1 yielded an equilibrium dissociation constant (Kd) of 148 nM.
As to B2, binding was put at a Kd of 185 nM.
Consider B4, for which binding was put at a Kd of 266 nM.
Molecule B8 returned a Kd of 78.3 nM. Against the preceding molecule, the Kd is about 3.4-fold lower.
Still for that read-out and setting: the value for B9 was 886 nM.
Same read-out and setting: the same measure for B10: above 1000 nM.

Another test has as its target T3, human MSLN-His-Avi. Described as above. On the procedure:
as §5
as §6, with “μl/min. Subtracted data (flow cell 2−flow cell 1, flow cell 3−flow cell 1, or flow cell 4−flow cell 1) were analysed using BIAevaluation 3.2 Software (GE Healthcare) to identify binding using the model 1:1 binding, local Rmax and with refractive index (RI) constant 0.” for “μl/min.”
As for B1, the Kd is 47.5 nM.
Same read-out and setting: the value for B2 was 33.1 nM; that for B4 was 5.2 nM.
The same measure, in the same setting: the value for B8 was 49.2 nM.
Still for that read-out and setting: the value for B9 was 700 nM; that for B10 was 615 nM.

Another test concerns the target T3, human MSLN-His-Avi. The test can be described thus: SPR (Biacore), MSLN immobilised, mAb^2 injected. On the procedure:
as §4, §5
The molecule B1 returned a dissociation constant (Kd) of 0.31 nM.
B2: binding was put at a Kd of 0.36 nM.
For B4, the dissociation constant (Kd) was 0.07 nM.
On the same count and under the same terms, the value for B8 was 0.89 nM; that for B9 was 0.14 nM; that for B10 was 1.1 nM.
